Reference: PMC11507893 (bioRxiv, 2024)

Assays:
[1] = target: T1, FLAG-tagged Mnl1 (Mnl1-FLAG) (S. cerevisiae, UniProt P38888 21-796); test: cryo-EM structure
T1 sequence (looked up): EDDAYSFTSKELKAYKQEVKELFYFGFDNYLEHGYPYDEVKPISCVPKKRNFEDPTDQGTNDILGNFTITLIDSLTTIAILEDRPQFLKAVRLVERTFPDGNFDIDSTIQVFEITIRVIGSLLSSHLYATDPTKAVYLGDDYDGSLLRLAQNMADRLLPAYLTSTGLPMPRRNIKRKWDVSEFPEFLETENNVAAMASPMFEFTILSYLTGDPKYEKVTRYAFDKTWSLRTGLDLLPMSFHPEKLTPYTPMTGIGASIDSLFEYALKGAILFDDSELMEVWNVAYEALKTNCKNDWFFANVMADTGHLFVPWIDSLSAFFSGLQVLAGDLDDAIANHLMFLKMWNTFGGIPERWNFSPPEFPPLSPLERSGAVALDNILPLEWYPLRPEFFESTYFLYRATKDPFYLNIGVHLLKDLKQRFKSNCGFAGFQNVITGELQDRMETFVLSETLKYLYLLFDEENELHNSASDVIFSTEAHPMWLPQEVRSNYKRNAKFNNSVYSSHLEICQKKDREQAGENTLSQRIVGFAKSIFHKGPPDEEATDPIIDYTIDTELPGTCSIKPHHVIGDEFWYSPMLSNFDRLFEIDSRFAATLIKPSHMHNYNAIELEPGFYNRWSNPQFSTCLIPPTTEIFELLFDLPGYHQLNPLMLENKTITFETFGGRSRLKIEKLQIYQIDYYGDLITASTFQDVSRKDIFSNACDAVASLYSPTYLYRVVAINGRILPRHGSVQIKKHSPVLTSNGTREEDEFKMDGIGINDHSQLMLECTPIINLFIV

[2] = target: T2, Mnl1 mCTD mutant (L655N, F770Y, M772K), FLAG-tagged (S. cerevisiae, UniProt P38888 21-796, L655N | F770Y | M772K); test: co-IP + SEC
T2 sequence (looked up): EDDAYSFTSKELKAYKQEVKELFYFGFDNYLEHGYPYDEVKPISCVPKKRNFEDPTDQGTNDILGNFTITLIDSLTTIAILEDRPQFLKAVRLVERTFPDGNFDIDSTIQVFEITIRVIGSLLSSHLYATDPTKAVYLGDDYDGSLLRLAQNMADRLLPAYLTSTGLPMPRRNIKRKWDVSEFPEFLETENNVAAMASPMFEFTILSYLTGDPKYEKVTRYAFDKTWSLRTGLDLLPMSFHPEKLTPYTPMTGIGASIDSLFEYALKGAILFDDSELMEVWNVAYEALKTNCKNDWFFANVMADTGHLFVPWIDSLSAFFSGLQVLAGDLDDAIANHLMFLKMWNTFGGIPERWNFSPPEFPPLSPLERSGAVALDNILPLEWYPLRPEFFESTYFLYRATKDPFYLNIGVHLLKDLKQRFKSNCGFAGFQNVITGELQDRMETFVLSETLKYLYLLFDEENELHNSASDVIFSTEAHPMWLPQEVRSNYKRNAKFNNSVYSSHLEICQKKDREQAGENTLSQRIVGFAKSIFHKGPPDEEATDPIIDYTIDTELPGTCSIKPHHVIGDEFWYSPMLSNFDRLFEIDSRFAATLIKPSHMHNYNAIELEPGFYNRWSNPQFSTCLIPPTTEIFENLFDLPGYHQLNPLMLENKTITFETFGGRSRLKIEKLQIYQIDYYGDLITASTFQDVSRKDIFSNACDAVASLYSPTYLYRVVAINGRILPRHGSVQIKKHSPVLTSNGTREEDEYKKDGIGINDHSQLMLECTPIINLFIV

Mnl1(C579S), FLAG-tagged = target: T3, Mnl1(C579S), FLAG-tagged (S. cerevisiae, UniProt P38888 21-796, C579S); test: cross-linking
T3 sequence (looked up): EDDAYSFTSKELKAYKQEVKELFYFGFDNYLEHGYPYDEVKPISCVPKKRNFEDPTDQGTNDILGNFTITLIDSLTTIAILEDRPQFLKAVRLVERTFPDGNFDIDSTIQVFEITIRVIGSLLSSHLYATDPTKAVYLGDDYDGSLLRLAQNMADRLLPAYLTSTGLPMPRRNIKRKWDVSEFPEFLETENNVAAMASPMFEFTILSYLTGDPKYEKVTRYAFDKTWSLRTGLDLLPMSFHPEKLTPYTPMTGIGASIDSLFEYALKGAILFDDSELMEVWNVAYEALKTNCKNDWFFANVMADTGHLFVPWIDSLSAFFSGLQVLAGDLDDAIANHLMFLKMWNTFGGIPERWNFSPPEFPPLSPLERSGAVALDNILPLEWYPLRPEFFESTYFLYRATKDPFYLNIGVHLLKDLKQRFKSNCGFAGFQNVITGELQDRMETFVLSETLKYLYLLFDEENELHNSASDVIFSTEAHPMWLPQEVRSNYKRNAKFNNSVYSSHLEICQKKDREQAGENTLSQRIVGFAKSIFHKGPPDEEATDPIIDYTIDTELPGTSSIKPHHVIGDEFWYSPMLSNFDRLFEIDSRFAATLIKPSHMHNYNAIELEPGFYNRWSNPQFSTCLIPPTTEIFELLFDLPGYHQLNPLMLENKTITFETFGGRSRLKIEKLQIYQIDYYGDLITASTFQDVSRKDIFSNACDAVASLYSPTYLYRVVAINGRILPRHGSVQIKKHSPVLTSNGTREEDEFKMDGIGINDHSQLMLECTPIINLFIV

Mnl1(C644S), FLAG-tagged = target: T4, Mnl1(C644S), FLAG-tagged (S. cerevisiae, UniProt P38888 21-796, C644S); test: cross-linking
T4 sequence (looked up): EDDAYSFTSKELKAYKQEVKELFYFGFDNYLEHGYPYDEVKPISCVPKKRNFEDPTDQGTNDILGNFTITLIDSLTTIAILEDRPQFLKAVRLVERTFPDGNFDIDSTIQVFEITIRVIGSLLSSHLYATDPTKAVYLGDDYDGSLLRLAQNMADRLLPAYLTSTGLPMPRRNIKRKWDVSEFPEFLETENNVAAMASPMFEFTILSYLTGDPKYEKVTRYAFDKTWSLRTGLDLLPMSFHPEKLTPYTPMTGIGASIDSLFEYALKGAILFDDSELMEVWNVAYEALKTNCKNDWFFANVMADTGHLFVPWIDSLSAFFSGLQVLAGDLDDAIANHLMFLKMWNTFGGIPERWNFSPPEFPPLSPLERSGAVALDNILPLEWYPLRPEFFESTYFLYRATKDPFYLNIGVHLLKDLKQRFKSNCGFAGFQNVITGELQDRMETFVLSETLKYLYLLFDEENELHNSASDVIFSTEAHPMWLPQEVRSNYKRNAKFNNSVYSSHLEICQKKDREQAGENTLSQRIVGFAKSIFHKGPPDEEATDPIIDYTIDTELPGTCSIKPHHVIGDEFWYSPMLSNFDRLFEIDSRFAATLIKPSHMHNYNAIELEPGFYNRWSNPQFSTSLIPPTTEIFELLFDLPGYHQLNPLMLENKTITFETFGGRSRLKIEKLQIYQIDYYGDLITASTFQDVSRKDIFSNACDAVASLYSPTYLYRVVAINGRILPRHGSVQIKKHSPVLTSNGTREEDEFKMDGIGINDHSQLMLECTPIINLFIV

binding result [1]: binds | binding result [2]: binds | binding result (Mnl1(C579S), FLAG-tagged): binds | binding result (Mnl1(C644S), FLAG-tagged): binds
B1: protein disulfide isomerase (Pdi1) (enzyme, S. cerevisiae, UniProt P17967 29-522, looked up)
chain: PEDSAVVKLATDSFNEYIQSHDLVLAEFFAPWCGHCKNMAPEYVKAAETLVEKNITLAQIDCTENQDLCMEHNIPGFPSLKIFKNSDVNNSIDYEGPRTAEAIVQFMIKQSQPAVAVVADLPAYLANETFVTPVIVQSGKIDADFNATFYSMANKHFNDYDFVSAENADDDFKLSIYLPSAMDEPVVYNGKKADIADADVFEKWLQVEALPYFGEIDGSVFAQYVESGLPLGYLFYNDEEELEEYKPLFTELAKKNRGLMNFVSIDARKFGRHAGNLNMKEQFPLFAIHDMTEDLKYGLPQLSEEAFDELSDKIVLESKAIESLVKDFLKGDASPIVKSQEIFENQDSSVFQLVGKNHDEIVNDPKKDVLVLYYAPWCGHCKRLAPTYQELADTYANATSDVLIAKLDHTENDVRGVVIEGYPTIVLYPGGKKSESVVYQGSRSLDSLFDFIKENGHFDVDGKALYEEAQEKAAEEADADAELADEEDAIHDEL
